Measurements as given in patent US6428781B1, “Composition of an endogenous insulin-like growth factor-II derivative” (Daiichi Pharmaceutical Co., Ltd., priority 1996, dated 2002).
One block for each compound: values may come before it.

Columns and labels:
[1] = target: T1, rat IGFBP-3 (RBP-3 E. coli) (Rattus norvegicus, UniProt P15473); assay: Solid-phase binding of HRP-IGF-II to immobilized IGFBP-3, competitive inhibition; conditions: for inhibitory activity against the binding of IGF-II to IGFBP-3 (RBP-3 E. coli): final concentration of each compound 100 μg/ml, compared to the other test compounds of Table 1
T1 construct: made in house; host or cells: Escherichia coli (periplasm)
T1 sequence (P15473 28-292): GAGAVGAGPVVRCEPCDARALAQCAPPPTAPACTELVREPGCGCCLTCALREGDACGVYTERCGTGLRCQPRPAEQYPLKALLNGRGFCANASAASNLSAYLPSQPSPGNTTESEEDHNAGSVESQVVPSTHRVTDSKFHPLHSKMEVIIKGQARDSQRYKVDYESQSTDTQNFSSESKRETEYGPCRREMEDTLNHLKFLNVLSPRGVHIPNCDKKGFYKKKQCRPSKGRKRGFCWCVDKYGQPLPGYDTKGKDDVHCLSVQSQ
Experimental: A 96-well microtiter plate manufactured by Costar Corp.; 50 mM sodium phosphate buffer (pH 6.5) as a basic buffer for immuobilization; basic buffer supplemented with 0.03% Tween 20, basic buffer supplementee with 1% BSA and basic buffer supplemented with 0.25% BSA an 0.03% Tween 20 were used in the washing, blocking and binding steps, respectively. After each reaction, wells were washed twice with 400 μl/well of buffer. Horseradish peroxidase-labeled IGF-II (hereinafter “HRP-IGF-II”) was prepared using a commercially available kit (PIERCE Chemichal Company).
To the microtiter plate, RBP-3 E. coli (150 ng/ml) was added in an amount of 50 μl/well and allowed to stand overnight at 4° C. for immobilization. After blocking, 50 μl/well of HRP-IGF-II (final concentration diluted 12,000-fold) was added at 25° C. for 2 hours in the presence or absence of a test compound. Test compounds at various concentrations were added to each well in a total volume of 50 μl.
In the final step, a solution of 2,2′-azino-bis(3-ethylbenzthiazoline-6-sulfonic acid) (hereinafter “ABTS”; Kirkegaard & Perry Laboratories) was added to each well (100 μl/well) and allowed to stand at room temperature. The absorbance (O.D.) at 405 nm was measured on a plate reader (“VMAX™”, Molecular Devices).
The absorbance in the absence of a test compound is designated “B0”, and in the presence of a test compound is designated as “B”. The absorbance in the absence of both a test compound and using a non-immobilized well (a well not containing RBP-3 E. coli) is designated as nonspecific bound (NSB). The percent binding of labeled IGF-II to immobilized IGFBP-3 in the presence of a test compound is calculated from the following equation: […]
The binding reactions for each of the test compounds, was performed triplicate. The average value is plotted and the SD value is indicated with a bar (refer to FIG. 8).
Each compound was dissolved or suspended in basic buffer containing 5% methanol at a final concentration of 1 mg/ml. The resulting solution or suspension was diluted with the reaction buffer 5-fold or to a final concentration of 200 μg/ml. The final concentration of each compound at the time of measurement was 100 μg/ml.
The percent binding of IGF-II to IGFBP-3 (RBP-3 E. coli) in the presence of a test compound was calculated using the following formula:
“percent total bound (100(%))−percent actual bound (%)”=percent inhibitory activity (%) of the test specimen.
Measurements for each of the test compounds were performed twice, and the average inhibitory activity was determined.

[2] = adult humans, intravenous injection, 100 μg/kg; Guler et al. 1987; cited from earlier work
[3] = Evaluation of blood lipid level (1), nonfasting SD rats; type: in vivo; conditions: plasma; for total glyceride concentration 6 hours after administration, compared to negative control: IGF-I 50 μg/kg s.c., anti-RBP-3 pAb #35 20 mg/head i.p.; for total glyceride concentration 6 hours after administration, compared to negative control / total cholesterol concentration 24 hours after administration, compared to negative control: [Leu27, Leu43]rIGF-II 1,000 μg/kg s.c.
Experimental: [Leu27, Leu43]rIGF-II (1,000 μg/kg) was administered, subcutaneously, to a group of nonfasting SD rats (n=3, 8 weeks old, male, average weight: 300 g, purchased from Charles River Japan).
Anti-RBP-3 pAb #35 (20 mg/head) was administered, intraperitoneally, to another group of SD rats.
As a negative control, physiological saline (500 μl/head) was administered, subcutaneously, and as a positive control group, IGF-I (50 μg/kg, 200 μg/kg) was administered, subcutaneously.
About 500 μl of blood was sequentially collected into EDTA-coated glass tubes from the caudal vein. Thirty minutes after collection, the blood was centrifuged (3,500 rpm×12 mm 25° C.), and plasma supernatant was recovered and stored at −80° C. until assayed. The total cholesterol and total triglyceride concentrations of the plasma were measured in accordance with a “Hitachi 715 model” automatic analyzer using the enzyme method of “Autocera CH02 and TG2” (each, manufactured by Daiichi Pure Chemicals Co., Ltd.).

[4] = target: T2, human placental insulin receptor (Homo sapiens, UniProt P06213); assay: Insulin receptor radioreceptor binding assay with 125I-insulin
T2 construct: human placental insulin receptor; from tissue; host or cells: human placenta
Experimental: (§1) The [Leu27, Leu43]rIGF-II derivative described in Example 8, was characterized for its binding affinity to human placental IGF-I receptor and human placental insulin receptor using a radioreceptor assay (Le Bon, T. R., et al., J. Biol. Chem., 261, 7685 (1986); Fujita-Yamaguchi, Y., et al., J. Biol. Chem., 258, 5045 (1983)).
(§2) In the first step, ^125I-IGF (or ^125I-insulin) (Amersham International plc) in an amount of 2×10^4 cpm was incubated with various amounts of the IGF receptor or the insulin receptor, to determine an amount of the receptor to which 50% of ^125I-IGF (or ^125I-insulin) binds.
(§3) [Leu27, Leu43]rIGF-II was added at various concentrations to aliquots of the mixture containing the determined amount of the receptor and ^125I-IGF (or ^125I-insulin) (2×10^4 cpm). The final volume of the reaction mix was brought to […] using a 50 mM Tris-HCl buffer (pH 7.4) containing 0.1% BSA and 0.075% Triton X-100, and allowed to incubate overnight at 4° C. […] The reaction mixture was centrifuged (3000 rpm×30 min, 4° C.), the supernatant decanted, and the cpm value for the pellet was measured by gamma counting. […]
(§4) The cpm value in the absence of a receptor is designated as nonspecific bound (NSB). […] The percent binding to a receptor is calculated from the following equation: […]

[5] = target: T3, human placental IGF-I receptor (Homo sapiens, UniProt P08069); assay: IGF-I receptor radioreceptor binding assay with 125I-IGF-I
T3 construct: human placental IGF-I receptor; from tissue; host or cells: human placenta
Experimental: as §1, §2, §3, §4

[6] = target: IGF-II/cation-independent mannose-6-phosphate receptor (Homo sapiens, UniProt P11717); conditions: Sakano et al. 1991; cited from earlier work
Chain of IGF-II/cation-independent mannose-6-phosphate receptor (P11717 41-2491): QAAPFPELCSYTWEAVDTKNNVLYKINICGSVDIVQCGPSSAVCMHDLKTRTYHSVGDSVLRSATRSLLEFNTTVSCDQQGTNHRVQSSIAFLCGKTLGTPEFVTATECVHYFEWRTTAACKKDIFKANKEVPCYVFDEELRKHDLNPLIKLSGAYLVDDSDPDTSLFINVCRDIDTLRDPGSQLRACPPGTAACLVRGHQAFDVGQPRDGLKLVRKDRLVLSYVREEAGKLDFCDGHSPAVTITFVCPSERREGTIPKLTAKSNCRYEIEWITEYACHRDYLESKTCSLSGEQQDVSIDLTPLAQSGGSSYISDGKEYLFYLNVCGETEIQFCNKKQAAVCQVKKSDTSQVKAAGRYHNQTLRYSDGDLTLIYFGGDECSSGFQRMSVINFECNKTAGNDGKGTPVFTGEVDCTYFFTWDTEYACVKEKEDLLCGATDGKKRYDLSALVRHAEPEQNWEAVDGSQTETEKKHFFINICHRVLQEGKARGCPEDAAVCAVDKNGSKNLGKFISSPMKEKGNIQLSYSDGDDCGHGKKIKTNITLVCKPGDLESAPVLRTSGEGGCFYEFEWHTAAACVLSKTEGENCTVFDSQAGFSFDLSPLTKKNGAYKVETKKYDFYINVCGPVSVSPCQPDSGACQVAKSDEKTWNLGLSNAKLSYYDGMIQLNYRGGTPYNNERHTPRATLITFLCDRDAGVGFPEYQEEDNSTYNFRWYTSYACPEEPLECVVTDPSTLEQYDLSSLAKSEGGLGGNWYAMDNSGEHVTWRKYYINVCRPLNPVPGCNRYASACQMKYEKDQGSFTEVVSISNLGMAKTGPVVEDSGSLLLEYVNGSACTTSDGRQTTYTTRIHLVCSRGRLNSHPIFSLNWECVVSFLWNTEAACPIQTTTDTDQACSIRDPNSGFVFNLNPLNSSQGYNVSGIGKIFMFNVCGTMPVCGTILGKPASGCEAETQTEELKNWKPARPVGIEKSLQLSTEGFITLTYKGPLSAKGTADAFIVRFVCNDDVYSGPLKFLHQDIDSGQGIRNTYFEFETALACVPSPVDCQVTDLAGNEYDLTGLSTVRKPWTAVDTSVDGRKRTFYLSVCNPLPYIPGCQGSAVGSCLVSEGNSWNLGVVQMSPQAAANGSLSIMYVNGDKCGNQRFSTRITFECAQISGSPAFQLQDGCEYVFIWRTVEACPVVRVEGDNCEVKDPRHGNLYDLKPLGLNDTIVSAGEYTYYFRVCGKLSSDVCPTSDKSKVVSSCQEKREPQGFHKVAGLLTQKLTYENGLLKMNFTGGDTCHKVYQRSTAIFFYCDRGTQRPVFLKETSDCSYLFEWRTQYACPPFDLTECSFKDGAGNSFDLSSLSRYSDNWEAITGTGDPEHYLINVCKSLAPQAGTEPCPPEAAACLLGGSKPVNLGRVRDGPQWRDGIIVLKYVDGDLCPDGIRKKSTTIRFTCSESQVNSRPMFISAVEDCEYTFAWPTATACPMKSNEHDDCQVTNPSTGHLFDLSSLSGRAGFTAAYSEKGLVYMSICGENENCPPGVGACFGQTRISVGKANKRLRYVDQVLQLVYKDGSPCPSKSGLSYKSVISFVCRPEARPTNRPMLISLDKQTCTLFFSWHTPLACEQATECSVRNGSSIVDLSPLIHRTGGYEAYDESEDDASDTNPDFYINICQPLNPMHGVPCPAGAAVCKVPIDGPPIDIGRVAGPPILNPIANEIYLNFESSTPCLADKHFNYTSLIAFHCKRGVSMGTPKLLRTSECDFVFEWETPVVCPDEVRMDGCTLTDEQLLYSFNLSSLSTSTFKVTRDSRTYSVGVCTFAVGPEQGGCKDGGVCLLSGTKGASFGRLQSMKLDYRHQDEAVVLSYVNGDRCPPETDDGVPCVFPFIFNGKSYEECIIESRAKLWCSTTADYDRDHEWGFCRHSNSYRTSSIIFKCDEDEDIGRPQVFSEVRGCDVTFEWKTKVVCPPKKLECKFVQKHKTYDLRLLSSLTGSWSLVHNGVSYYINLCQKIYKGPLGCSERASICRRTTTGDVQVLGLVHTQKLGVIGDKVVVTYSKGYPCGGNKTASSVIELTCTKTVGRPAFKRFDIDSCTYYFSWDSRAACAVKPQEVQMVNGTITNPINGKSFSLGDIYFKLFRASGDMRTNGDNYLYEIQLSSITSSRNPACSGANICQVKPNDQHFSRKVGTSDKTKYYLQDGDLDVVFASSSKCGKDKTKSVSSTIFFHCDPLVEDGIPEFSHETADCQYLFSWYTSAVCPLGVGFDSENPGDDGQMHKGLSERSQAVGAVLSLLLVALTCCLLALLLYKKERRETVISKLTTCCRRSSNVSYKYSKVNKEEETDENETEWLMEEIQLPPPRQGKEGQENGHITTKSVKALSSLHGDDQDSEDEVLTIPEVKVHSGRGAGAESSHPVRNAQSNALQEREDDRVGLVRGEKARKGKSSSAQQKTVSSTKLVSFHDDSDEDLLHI

[7] = target: IGF-I receptor (Homo sapiens, UniProt P08069); conditions: Sakano et al. 1991; cited from earlier work
[8] = target: IGFBP-3 (Homo sapiens, UniProt P17936); conditions: Bach et al. 1993; cited from earlier work
Chain of IGFBP-3 (P17936 28-291, species assumed): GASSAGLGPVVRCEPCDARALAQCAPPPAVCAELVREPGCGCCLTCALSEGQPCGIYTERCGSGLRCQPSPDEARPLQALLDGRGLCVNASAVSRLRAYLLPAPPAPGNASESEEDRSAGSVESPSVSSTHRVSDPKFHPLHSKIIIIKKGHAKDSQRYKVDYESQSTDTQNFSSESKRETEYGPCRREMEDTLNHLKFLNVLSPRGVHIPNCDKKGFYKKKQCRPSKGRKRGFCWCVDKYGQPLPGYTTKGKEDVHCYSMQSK

[9] = test system: cell proliferation; conditions: Sakano et al. 1991; cited from earlier work
[10] = target: insulin receptor (Homo sapiens, UniProt P06213); conditions: Sakano et al. 1991; cited from earlier work

inhibitory activity against the binding of IGF-II to IGFBP-3 (RBP-3 E. coli) [1]: potent inhibitory activity
Compound: O=c1oc2c(O)c(O)cc3c(=O)oc4c(O)c(O)cc1c4c23 [Compound 27, Ellagic acid]

Compound: CC[C@@]1(O)C[C@H](O[C@H]2C[C@H](N(C)C)[C@H](O[C@H]3C[C@H](O)[C@H](O[C@H]4CCC(=O)[C@H](C)O4)[C@H](C)O3)[C@H](C)O2)c2c(cc3c(c2O)C(=O)c2c(O)cccc2C3=O)[C@H]1C(=O)OC [Compound 29, Aclacinomycin A]
inhibitory activity against the binding of IGF-II to IGFBP-3 (RBP-3 E. coli) [1]: potent inhibitory activity

inhibitory activity against the binding of IGF-II to IGFBP-3 (RBP-3 E. coli) [1]: potent inhibitory activity
Compound: Heparin [Compound 31]

Compound: IGF-I: Human IGF-I purchased from GroPep Pty. Ltd.; positive control
blood glucose levels [2]: lowering of blood glucose levels
time of lowest blood glucose level after injection [2]: 20 min
total glyceride concentration 6 hours after administration, compared to negative control [3]: significantly decreased
total cholesterol concentration 6 hours after administration, compared to negative control ([3]; IGF-I 200 μg/kg s.c.): significantly decreased
total cholesterol concentration 24 hours after administration, compared to negative control ([3]; IGF-I 200 μg/kg s.c.): significantly decreased

affinity for / binding to the insulin receptor [4]: little or no binding
affinity for the insulin receptor, as % of that for insulin [4]: 1 to 2%
affinity for / binding to the IGF-I receptor [5]: little or no binding
affinity for the IGF-I receptor, as % of that for IGF-I [5]: 1 to 2%
affinity for IGFBP-3 [1]: has affinity for IGFBP-3
Compound: [Leu27, Leu43]rIGF-II: human IGF-II derivative; tyrosine at residue 27 and valine at residue 43 each replaced with leucine
total glyceride concentration 6 hours after administration, compared to negative control [3]: tendency toward lowering
total cholesterol concentration 24 hours after administration, compared to negative control ([3]; IGF-I 200 μg/kg s.c.): significant decrease
inhibition of the binding of IGF (labeled IGF-II) and immobilized IGFBP-3 ([1]; procedure of Example 10): at concentrations similar to those seen for IGF-II

Compound: [Leu 27] rIGF-II: human IGF-II derivative with a single amino acid substitution (Leu at position 27), from the literature
binding to the IGF-II/cation-independent mannose-6-phosphate receptor [6]: bind
binding to the IGF-I receptor [7]: almost no binding
binding to IGFBP-3 compared to wild type [8]: almost similar to the wild type
effect on cell proliferation [9]: significantly lowered effect
binding to the insulin receptor [10]: almost no binding

Compound: [Leu 43] rIGF-II: human IGF-II derivative with a single amino acid substitution (Leu at position 43), from the literature
binding to the IGF-II/cation-independent mannose-6-phosphate receptor [6]: bind
binding to the IGF-I receptor [7]: almost no binding
binding to IGFBP-3 compared to wild type [8]: almost similar to the wild type
effect on cell proliferation [9]: significantly lowered effect
binding to the insulin receptor [10]: almost no binding
